Laboratory results as given in the supplement of paper PMC9170038.

Legend:
Conditions in all cases: FMN input: 0 or 200 uM; Eterna round: R93 (includes R88 designs)
MS2 coat protein [1] = experiment: apparent KD of MS2 coat protein, switch OFF state (with FMN for OFF switches, without FMN for ON switches); designed switch direction (-1 OFF switch, 1 ON switch): 1; higher = weaker reporter binding
Procedure, shortened: (§1)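 Each design's apparent KD comes from the median of binding-curve fits to its normalised clusters. Those clusters carried RNA switches transcribed on-chip from Illumina sequencing clusters. SNAP-549-labelled MS2 coat protein was titrated onto them in twofold steps (0.7 or 1.5 nM to 3 µM; per step 0.8–1.5 h down to 10–20 min). Conditions were 100 mM Tris-HCl pH 7.5, 80 mM KCl, 4 mM MgCl2, without or with constant ligand.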

MS2 coat protein [2] = experiment: apparent KD of MS2 coat protein, switch ON state; designed switch direction (-1 OFF switch, 1 ON switch): 1; higher = weaker reporter binding
Procedure, shortened: as §1

MS2 coat protein [3] = experiment: apparent KD of MS2 coat protein, switch ON state; designed switch direction (-1 OFF switch, 1 ON switch): -1; higher = weaker reporter binding
Procedure, shortened: as §1

MS2 coat protein [4] = experiment: apparent KD of MS2 coat protein, switch OFF state (with FMN for OFF switches, without FMN for ON switches); designed switch direction (-1 OFF switch, 1 ON switch): -1; higher = weaker reporter binding
Procedure, shortened: as §1

AAAAAAAAAACUCAGGAUAUAGAUUGUAGAACAUGAGGAUCACCCAUGUAGUGAAAGAAGAGAGACUAGAAGGGAGUAAAAAAAAA [Same State 2 #3]
apparent KD of MS2 coat protein (MS2 coat protein [1]): 69.1 nM | apparent KD of MS2 coat protein (MS2 coat protein [2]): 43.2 nM

AAAAAAAAACGUGAGGAUAUGUGAAAAUUAACAUGAGGAUCACCCAUGUGAUAAAAAAAAAAAAAACAGAAGGUACAAAAAAAAAA [Same 2 again I have no idea]
apparent KD of MS2 coat protein (MS2 coat protein [1]): 28.4 nM | apparent KD of MS2 coat protein (MS2 coat protein [2]): 21.2 nM

AAAAAAAAAGUCGAGGAUAUCCACAUGGCGACAUGAGGAUCACCCAUGUGAAGAAAAGCACAUGAGGAGAAGGCGACAAAAAAAA [Same State 2.7a (Tightrope mod)]
apparent KD of MS2 coat protein (MS2 coat protein [1]): 225 nM | apparent KD of MS2 coat protein (MS2 coat protein [2]): 32.7 nM

AAAAAAAAAUCACAGGAUAUACAAAAAAAAACAUGAGGAUCACCCAUGUAAAAAAAAAAAAAAAAGUAGAAGGGUGAUCCAAAAAA
apparent KD of MS2 coat protein (MS2 coat protein [1]): 9.28 nM | apparent KD of MS2 coat protein (MS2 coat protein [2]): 12.1 nM

AAAAAACAAAGAGAGGAUAUCCAAAAAAAAACAUGAGGAUCACCCAUGUAAAGAAAUUUAAAAUGGGAGAAGGCUCUUUGAAAAA [Same State 2.6b ( Helter Skelter 1)]
apparent KD of MS2 coat protein (MS2 coat protein [1]): 30.9 nM | apparent KD of MS2 coat protein (MS2 coat protein [2]): 33.4 nM

AAAAAACAAAGAGAGGAUAUCCUGAAAAAAACAUGAGGAUCACCCAUGUAAAGAAAUUUAAAAUGGGAGAAGGCUCUUUGAAAAA [Same State 2.6c ( Helter Skelter 1)]
apparent KD of MS2 coat protein (MS2 coat protein [1]): 22.3 nM | apparent KD of MS2 coat protein (MS2 coat protein [2]): 24.6 nM

AAAAAACAUGAGGAUCACCCAUGUAAUACAACAUCAGGAUAUUGGCUUGACUAUGUCUUACAAGAAGGGAUGAAAA [Same State 1.3d (Same State 1 - Omei 2 )]
apparent KD of MS2 coat protein (MS2 coat protein [1]): 81.5 nM | apparent KD of MS2 coat protein (MS2 coat protein [2]): 30.5 nM

AAAAAACAUGAGGAUCACCCAUGUAGAAACAUGGGAGGAUAUACAAAGACGAAAGUCAAAGUAGAAGGCCUAAAGA [Mat - Same State 1 - Mod - D162]
apparent KD of MS2 coat protein (MS2 coat protein [1]): 182 nM | apparent KD of MS2 coat protein (MS2 coat protein [2]): 162 nM

AAAAAACAUGAGGAUCACCCAUGUAGAAACAUGGGAGGAUAUACGAAGACGAAAGUCAAAGUAGAAGGCCUAAGAG [Garnet 89]
apparent KD of MS2 coat protein (MS2 coat protein [1]): 592 nM | apparent KD of MS2 coat protein (MS2 coat protein [2]): 183 nM

AAAAAACAUGAGGAUCACCCAUGUGCAAAAUUCGCAGGAUAUUCUUUUUUUAAAUGGGAGGGAGAAGGGUGUAAAA [Nob's Hobby 20 - Jieux - Same State 1]
apparent KD of MS2 coat protein (MS2 coat protein [1]): 21.3 nM | apparent KD of MS2 coat protein (MS2 coat protein [2]): 20.8 nM

AAAAACAUGGUGCAGGAUAUAUUAAUAGUCACAUGAGGAUCACCCAUGUUCAUUUAUAUGAACGAGUAGAAGGGCGAUGAAAAAA [Mat - Same state - Malcolm Mod - D111]
apparent KD of MS2 coat protein (MS2 coat protein [1]): 410 nM | apparent KD of MS2 coat protein (MS2 coat protein [2]): 247 nM

AAAACACAUGAGGAUCACCCAUGUAGAAAUACGGGAGGAUAUACGAAAACGAAAGACAAAGUAGAAGGCCUAAAAG [saturn 7]
apparent KD of MS2 coat protein (MS2 coat protein [1]): 53 nM | apparent KD of MS2 coat protein (MS2 coat protein [2]): 38.7 nM

AAAACACAUGAGGAUCACCCAUGUAGAAAUAUGGGAGGAUAUACGAAAACGAAAGACAAAGUAGAAGGCCUAAAAG [saturn 4]
apparent KD of MS2 coat protein (MS2 coat protein [1]): 153 nM | apparent KD of MS2 coat protein (MS2 coat protein [2]): 41.6 nM

AAAACUACAGAUCAGGAUAUGUUUAGGUAAACAUGAGGAUCACCCAUGUGCACCUGAUAAACAACACAGAAGGGAUAACGUGGGA [Geerreleon]
apparent KD of MS2 coat protein (MS2 coat protein [1]): 25.7 nM | apparent KD of MS2 coat protein (MS2 coat protein [2]): 20.7 nM

AAAAGACAUGAGGAUCACCCAUGUCAAAACAUAGGAGGAUAUGUCGUGAAAAAAGACUUGGCAGAAGGCCUUUGUC [SS1 - 48]
apparent KD of MS2 coat protein (MS2 coat protein [1]): 19.3 nM | apparent KD of MS2 coat protein (MS2 coat protein [2]): 17.3 nM

AAAAGACAUGAGGAUCACCCAUGUCAAAACAUAGGAGGAUAUGUCUGGAAAAAAGACUGGACAGAAGGCCUUUGUC [SS1 - 59]
apparent KD of MS2 coat protein (MS2 coat protein [1]): 18.9 nM | apparent KD of MS2 coat protein (MS2 coat protein [2]): 15.5 nM

GAAAAGUCAGGAUAUGUGGAAAAAAUAAAAAAAAUAAAAACACAGAAGGGACAUGAGGAUCACCCAUGUUAAAG [Mat - Exclusion 4 - Mayanna - D138]
apparent KD of MS2 coat protein (MS2 coat protein [3]): 41.5 nM | apparent KD of MS2 coat protein (MS2 coat protein [4]): 32.5 nM

GAAAAGUGAGGAUAUACAUGAGGAUCACCCAUGUGUAUAAAAAAAUACACAAAAGAAAGUAGAAGGCACUAAAA [Mat - Exclusion 3 - Mayanna mod - D111]
apparent KD of MS2 coat protein (MS2 coat protein [3]): 25.8 nM | apparent KD of MS2 coat protein (MS2 coat protein [4]): 65.9 nM

GAAUGCAGAGGAUAUACGGGAUAGCAUCGAAAGAUGCUAAAACAUGAGGAUCACCCAUGUAGAAGGCUGCAGAA [JL Mod 02]
apparent KD of MS2 coat protein (MS2 coat protein [3]): 58 nM | apparent KD of MS2 coat protein (MS2 coat protein [4]): 144 nM

GAUAGUGAAGGAUAUACUGGAGGAGUGCGAUAAAAGAAAGAACAUGAGGAUCACCCAUGUAGAAGGUCAGAAGU [JR_Exc002_Sub1226]
apparent KD of MS2 coat protein (MS2 coat protein [3]): 24.7 nM | apparent KD of MS2 coat protein (MS2 coat protein [4]): 27.3 nM

GAUGAGUGAGGAUAUGUAAAAAAAAGAGAAGAGAAGAGAGAACAGAAGGCACAUGAGGAUCACCCAUGUAGGGA [Default title]
apparent KD of MS2 coat protein (MS2 coat protein [3]): 226 nM | apparent KD of MS2 coat protein (MS2 coat protein [4]): 322 nM

GGAAAACAUGAGGAUCACCCAUGUAAGGAUAUGCAAAAAAAAAAGGAUAUAGAAGGAAGCAGAAGGUACAAAGG [salish99-ex1-28]
apparent KD of MS2 coat protein (MS2 coat protein [3]): 24.5 nM | apparent KD of MS2 coat protein (MS2 coat protein [4]): 55.1 nM

GGAAAACAUGAGGAUCACCCAUGUAAGGAUAUGCUAGGGAAGGAAAAAAACCCACCAGGCAGAAGGUACUAAAG [Janelle Amethyst 18 Mod 5 - Jieux - Exclusion 1]
apparent KD of MS2 coat protein (MS2 coat protein [3]): 22.9 nM | apparent KD of MS2 coat protein (MS2 coat protein [4]): 41.4 nM

GGAAAGCGAGGAUAUACAUGAGGAUCACCCAUGUUAACAAACAAACAAACAAACAAAAGUAGAAGGCGCAAAAU [Exclusion 3 This and That]
apparent KD of MS2 coat protein (MS2 coat protein [3]): 42.6 nM | apparent KD of MS2 coat protein (MS2 coat protein [4]): 41.1 nM

GGGUGGCGAGGAUAUACAUGAGGAUCACCCAUGUGAGAGAAAAAAGUGAGAAAGAAAAGUAGAAGGCGCUGCCG [salish99-ex3-56]
apparent KD of MS2 coat protein (MS2 coat protein [3]): 47.9 nM | apparent KD of MS2 coat protein (MS2 coat protein [4]): 329 nM

GGUUGGCGAGGAUAUACAUGAGGAUCACCCAUGUGAGAGAAUAAAGUGAGAAAGAAAAGUAGAAGGCGCUGACG [salish99-ex3-44]
apparent KD of MS2 coat protein (MS2 coat protein [3]): 63.7 nM | apparent KD of MS2 coat protein (MS2 coat protein [4]): 116 nM

GGUUGUCGAGGAUAUACAUGAGGAUCACCCAUGUGAGAGAAAAAAGUGAGAAAGAAAAGUAGAAGGCGAUGACG [salish99-ex3-58]
apparent KD of MS2 coat protein (MS2 coat protein [3]): 38.2 nM | apparent KD of MS2 coat protein (MS2 coat protein [4]): 180 nM

GUAGAGUGAGGAUAUGAAUAAAAGAAGAGAAAGAGAAAGCAUCAGAAGGCACAUGAGGAUCACCCAUGUAUGAA [JR_Exc004_Sub1225]
apparent KD of MS2 coat protein (MS2 coat protein [3]): 29.2 nM | apparent KD of MS2 coat protein (MS2 coat protein [4]): 25.3 nM

GUGUACAGAGGAUAUACUAAAGCUAGGAAACUAGCAAGAUCACAUGAGGAUCACCCAUGUAGAAGGCUGUACAC [Ex2: 740]
apparent KD of MS2 coat protein (MS2 coat protein [3]): 58.1 nM | apparent KD of MS2 coat protein (MS2 coat protein [4]): 500 nM

UAAAAACAUGAGGAUCACCCAUGUGAGGAUAUACGAAAGUAGAAGGCACUAAAAUAAAAUAGAAGGAUAAAAUA [Meechl Ex1 R2 m1]
apparent KD of MS2 coat protein (MS2 coat protein [3]): 23.2 nM | apparent KD of MS2 coat protein (MS2 coat protein [4]): 37.5 nM

UAAAAACAUGAGGAUCACCCAUGUGAGGAUAUGUGAAAAAAAAAAAAAAAAAAAACAAGCAGAAGGCACAAAAA [JR_Exc001_Sub020]
apparent KD of MS2 coat protein (MS2 coat protein [3]): 67.6 nM | apparent KD of MS2 coat protein (MS2 coat protein [4]): 584 nM

UACGGACAUGAGGAUCACCCAUGUGAGGAUAUCGAUACCGAUAGCAUAAUAUAAUCGGCGAGAAGGCACAGCGU [JR_Exc001_Sub505]
apparent KD of MS2 coat protein (MS2 coat protein [3]): 39.9 nM | apparent KD of MS2 coat protein (MS2 coat protein [4]): 54.7 nM

UUUAUGUGAGGAUAUCAGUAGUAAAAAAAUAAAAUUACUACUGAGAAGGCACAUGAGGAUCACCCAUGUGUCUC [EX4 350: Super Stable 50]
apparent KD of MS2 coat protein (MS2 coat protein [3]): 17.5 nM | apparent KD of MS2 coat protein (MS2 coat protein [4]): 15 nM
